The target in this experiment is staphylococcal enterotoxin B (Staphylococcus aureus, strain , UniProt P01552). In words: SPR; ProteOn XPR36; […] (10 mM acetate pH 5.0); […]; Langmuir model. The conditions noted are these: both partners purified. A general note: Surface plasmon resonance follows binding to a sensor surface in real time, without labels.
Sequence of staphylococcal enterotoxin B (P01552 28-266): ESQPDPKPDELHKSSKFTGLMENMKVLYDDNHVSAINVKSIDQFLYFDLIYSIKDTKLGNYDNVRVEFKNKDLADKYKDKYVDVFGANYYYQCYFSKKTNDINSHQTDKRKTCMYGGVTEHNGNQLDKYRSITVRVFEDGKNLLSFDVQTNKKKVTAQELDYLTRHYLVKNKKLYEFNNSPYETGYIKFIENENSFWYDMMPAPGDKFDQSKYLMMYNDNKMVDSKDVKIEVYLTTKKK

B1: sdAb E2 (VHH)
VHH: EVQLQASGGGLVQAGGSLRLTCAASGRTFGSYAMGWFRQAPGKEREFVAAISWSGGDTYADSVKGRFTISRDNAKNTVYLQMNSLAPEDTAVYSCAAVGARYYISKDAKDYGYWGQGTQVTVSS
notes: also called Class A exemplar
B1: the Kd worked out at 0.27 nM, the off-rate (koff) is 0.0035 s⁻¹ and the on-rate constant (kon) is 1.3e+07 M⁻¹ s⁻¹.

B2: sdAb D9 (VHH)
VHH: EVQLQASGGGLAQAGDSLRLSCAASIRTFGSYAMGWFRQAPGKEREFVAAISWSGGDTYADSAKGRFTISRDNAKNMMYLQMNSLAPEDTAVYFCAIVEAKYYISKDARDYGYWGQGTQVFVSS
notes: also called Class C exemplar
As to B2, the equilibrium dissociation constant (Kd) was determined as 0.11 nM, the koff worked out at 0.00028 s⁻¹ and the kon came to 2.5e+06 M⁻¹ s⁻¹.

A word on the Kd: it is the concentration at which binding is half-saturated. A low value points to a tighter complex. By koff is commonly meant the first-order rate constant of dissociation. A low value points to a long-lived complex. Broadly, the kon is the second-order rate constant of association.

Values taken from paper PMC4760936 (PLoS ONE, 2016).
